Experimental findings from paper PMC3653069 are described below.

The series addresses MutSα (MSH2 subunit);MutSα (MSH6 subunit) (human;human, UniProt P43246;P52701 1-934;1-1360, |). Put plainly: EMSA. Background: Mobility shift assays separate free from complexed probe on a gel.

B1: rC/G (dsDNA)
DNA 1: CCAGACGTCTGTCGACGTTGGGAAGCTTGAG
DNA 2: CTCAAGCTTCCCAACGTCGACAGACGTCTGG
modifications: single ribocytidine at position 13 of strand 1 (rC opposite G)
For B1, the binding result was “no binding”.
